Test results as given in US20240075137A1 (COMPUGEN, published 2024).
Read-outs that look alike come from different tables or passages of the source.

T1: PVRIG (FACS-based competition assay of FIGS. 7 and 15) (Homo sapiens, UniProt Q6DKI7)
T1 construct: made because the format of the assay is only described in U.S. Ser. No. 15/048,967; also called human PVRIG
T1 sequence (receptor, looked up): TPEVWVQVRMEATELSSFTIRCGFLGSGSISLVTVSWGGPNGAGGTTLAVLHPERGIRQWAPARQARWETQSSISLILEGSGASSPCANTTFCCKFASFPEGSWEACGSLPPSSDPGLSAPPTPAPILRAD

T2: human PVRIG on cells (human, UniProt Q6DKI7 1-326)
T2 construct: whole, on cells; over-expressed on HEK cells or endogenous on Jurkat and CD8 T cells; also called hPVRIG; HEK hPVRIG cells
T2 sequence (looked up): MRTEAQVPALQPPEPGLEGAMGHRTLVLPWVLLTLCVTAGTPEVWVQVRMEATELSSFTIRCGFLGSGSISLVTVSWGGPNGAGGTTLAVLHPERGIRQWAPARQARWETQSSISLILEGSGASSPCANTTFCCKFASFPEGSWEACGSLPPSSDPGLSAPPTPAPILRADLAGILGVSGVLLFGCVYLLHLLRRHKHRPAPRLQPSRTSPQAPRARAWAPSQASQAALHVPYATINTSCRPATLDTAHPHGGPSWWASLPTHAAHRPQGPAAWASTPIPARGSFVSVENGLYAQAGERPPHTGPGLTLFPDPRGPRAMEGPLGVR

T3: cynomolgus PVRIG on cells (cynomolgus, UniProt A0A2K5WVV8 41-322)
T3 construct: whole, on cells; also called cPVRIG; expi cPVRIG cells
T3 sequence: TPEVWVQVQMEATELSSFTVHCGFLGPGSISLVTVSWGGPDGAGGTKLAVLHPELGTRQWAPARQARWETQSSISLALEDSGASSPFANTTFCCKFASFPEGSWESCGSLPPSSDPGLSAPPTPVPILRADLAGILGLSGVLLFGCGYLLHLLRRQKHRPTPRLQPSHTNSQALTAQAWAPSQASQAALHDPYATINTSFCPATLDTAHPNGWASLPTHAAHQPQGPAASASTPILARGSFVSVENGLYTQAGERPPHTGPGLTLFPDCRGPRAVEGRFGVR

B1: CHA.7.528 (antibody, V domains shown)
VH: EVQVQQSGPELVKPGASVKISCKASGYTFTKSNMHWVKQSHGKSLEWIGYIYPYNGGTGYNQNFKSKATLTVDISSSTAYMELRSLTLEDSAVYLCAREADYYGNRGQFDYWGQGTLVTVSA
VL: DIQMTQSPASLSVSVGETVTITCRASDNIFSNLAWYHQKQGKSPHLLVYGATNLADGVPSRFSGSGSGTQYSLKINSLQSEDFGDYYCQHFWGTPYTFGGGTKLEIK
B2: CHA.7.530 (antibody, V domains shown)
VH: QVQLQQSGAELMRPGTSVKVSCKASGYAFTNHLIEWIKQRPGQGLEWIGVINPGSDSTDYNEKFKDKATLTADKSSSTAYMQLSSLTSDDSAVYFCARSLYYNSWFVYWGQGTLVTVSA
VL: DIQMTQSPASLSASVGETVTITCRASENIYSYLAWYQQKRGKSPQLLVYNAKTLVEGVPSRFSGSGSGTQFSLKINSLQPEDFGSYYCQHHYGTPYTFGGGTKLEIK
B3: CHA.7.537 (antibody, V domains shown)
VH: QVQLKESGPGLVAPSQSLSITCTVSGFSLIGHGVNWIRQPPGKGLEWLGVIWGDGNTDYNSALKSRLSISKDNSKSQVFLKMNSLQTDDTARYFCAVNSAMDYWGQGTAVTVSS
VL: NIVMTQSPKSMSMSVGERVTLNCTASENVASFVSWYQQKPEQSPKLLIYGTSNRYTGVPDRFTGSGSATDFTLTISSVQAEDLGDYHCGQSYNYPFTFGSGTKLEIE
B4: CHA.7.543 (antibody, V domains shown)
VH: QVQLKESGPGLVAPSQSLSITCTVSGFSLSGYGIKWVRQPPGKGLEWLGTIWGDGSTDYNSALKSRLSISKDNSKSQVFLKMTSLQTDDTARYYCASDSLGITFGYWGQGTLVTVSA
VL: DIQMTQTTSSLSASLGDRVTISCRASQDISNYLNWYQQKPDGTVKLLIYYTSRLHSGVPSRFSGSGSGTDYSLTISNLEQEDIATYFCQQGNTLPLTFGAGTKLELK
B5: CHA.7.545 (antibody, V domains shown)
VH: QIQLVQSGPDLKKPGETVKISCKASGYTFTTYGMSWVKQAPGRGLKWMGWINTYSGVSTFPDDFKGRFAFSLETSASTAYLQINNLKNEDSATYFCARLGMGSTTGAGYFDVWGTGTTVTVSS
VL: DIVLTQSPAIMSASPGEKVTMTCSASSSVSSWYLHWYQQKSGASPKLWIYGTSNLASGVPARFSGSGSGTSYSLTISSVEAEDAATYYCQQYRSDPYTFGSGTKLEIK
B6: CHA.7.546 (antibody, V domains shown)
VH: QIQLVQSGPELKKPGETVKISCKASGYTFTTYGMSWVKQAPGKGLKWMGWINTYSGVSTYADDFEGRFAFSLETSVSTAYLQINNLKNEDTATYFCARLGRGSTTGAGYLDVWGTGTTVTVSS
VL: DIVLTQSPAIMSASPGEKVSMTCSASSSVSSWYLHWYQQKSGASPKLWIYGTSNLASGVPARFSGSGSGTSYSLTISSVEAEDAATYYCQQYHSDPYTFGSGTKLEIK
B7: CHA.7.547 (antibody, V domains shown)
VH: QIQLVQSGPDLKKPGETVKISCKASGYTFTTYGMSWVKQAPGRGLKWMGWINTYSGVSTFPDDFKGRFAFSLETSASTAYLQINNLKNEDSATYFCARLGMGSTTGAGYFDVWGTGTTVTVSS
VL: ENVLTQSPAIMSASLGEKVTLSCRASSSVNYMYWYQQKSDASPKLWIYYTSNLAPGVPARFSGSGSGNSYSLTISSVEGEDAATYYCQQFTSSPWTFGGGTKLEIK

Columns and labels:
[1] = target: T1, PVRIG (FACS-based competition assay of …); assay: FACS-based competition assay of PVRIG blocking; format and competitor not given
[2] = target: T2, human PVRIG on cells; assay: FACS, human PBMC, CD8+ T cells, 10ug/ml
[3] = target: T1, PVRIG (FACS-based competition assay of …); assay: FACS-based competition assay of PVRIG blocking; format and competitor not given; remark: listed apart in the source
[4] = target: T3, cynomolgus PVRIG on cells; assay: FACS, cyno PBMC, NK cells, 10ug/ml
[5] = target: T2, human PVRIG on cells; assay: FACS, HEK hPVRIG over HEK parental cells, 3.3ug/ml
[6] = target: T2, human PVRIG on cells; assay: FACS, human PBMC, CD8+ T cells, 10ug/ml; remark: listed apart in the source
[7] = target: T3, cynomolgus PVRIG on cells; assay: FACS, cyno PBMC, CD8+ T cells, 10ug/ml
[8] = target: T3, cynomolgus PVRIG on cells; assay: FACS, cyno PBMC, CD8+ T cells, 10ug/ml; remark: listed apart in the source
[9] = target: T2, human PVRIG on cells; assay: FACS, Jurkat cells, relative to control, 3.3ug/ml
[10] = target: T2, human PVRIG on cells; assay: FACS, human PBMC, CD56 int. NK cells, 10ug/ml
[11] = target: T3, cynomolgus PVRIG on cells; assay: FACS, cyno PBMC, NK cells, 10ug/ml; remark: listed apart in the source
[12] = target: T3, cynomolgus PVRIG on cells; assay: FACS, expi cPVRIG over expi parental cells, 3.3ug/ml
[13] = target: T2, human PVRIG on cells; assay: FACS, human PBMC, CD56 int. NK cells, 10ug/ml; remark: listed apart in the source
[14] = target: T3, cynomolgus PVRIG on cells; assay: FACS, expi cPVRIG over expi parental cells, 3.3ug/ml; remark: listed apart in the source
[15] = target: T2, human PVRIG on cells; assay: FACS, HEK hPVRIG cells (HEK OE)
[16] = target: T2, human PVRIG on cells; assay: FACS, HEK hPVRIG over HEK parental cells, 3.3ug/ml; remark: listed apart in the source
[17] = target: T2, human PVRIG on cells; assay: FACS, HEK hPVRIG cells (HEK OE); remark: listed apart in the source
[18] = target: T2, human PVRIG on cells; assay: FACS, Jurkat cells, relative to control, 3.3ug/ml; remark: listed apart in the source
[19] = target: T1, PVRIG (FACS-based competition assay of …); assay: FACS-based competition assay of PVRIG blocking; format and competitor not given; remark: listed apart in the source

Binder	IC50 [1]	gMFIr Human CD8+ T cells [2]	IC50 [3]	gMFIr Cyno NK cells [4]	gMFIr HEK OE/par [5]	gMFIr Human CD8+ T cells [6]	gMFIr Cyno CD8+ T cells [7]	gMFIr Cyno CD8+ T cells [8]	gMFIr Jurkat [9]	gMFIr Human CD56 int. NK [10]	gMFIr Cyno NK cells [11]	gMFIr Expi cyno OE/par [12]	gMFIr Human CD56 int. NK [13]	gMFIr Expi cyno OE/par [14]	EC50 [15]	gMFIr HEK OE/par [16]	EC50 [17]	gMFIr Jurkat [18]	IC50 [19]
B1	28.9 nM	3.63	28.9 nM	1.21	44.9	3.63	1.18	1.18	6.17	3.08	1.21	12.2	3.08	12.2	7.31 nM	–	–	–	–
B2	34.6 nM	6.47	34.6 nM	1.73	51.1	6.47	1.89	1.89	8.04	6.04	1.73	60.8	6.04	60.8	0.33 nM	–	–	–	–
B3	39 nM	3.41	39 nM	1.18	36.6	3.41	1.19	1.19	5.53	3.9	1.18	1.55	3.9	1.55	2.47 nM	–	–	–	–
B4	–	4.33	–	1.35	–	4.33	1.39	1.39	–	4.48	1.35	0.83	4.48	0.83	–	49.8	0.52 nM	6.73	–
B5	–	2.82	96.1 nM	–	–	2.82	–	–	–	2.54	–	0.91	2.54	0.91	–	44.3	0.76 nM	6.53	96.1 nM
B6	–	2.95	92 nM	–	–	2.95	–	–	–	2.75	–	0.85	2.75	0.85	–	43.1	0.61 nM	6.42	92 nM
B7	–	1.13	27.9 nM	–	–	1.13	–	–	–	2.21	–	26.6	2.21	26.6	–	10.9	14.4 nM	1.02	27.9 nM
